Assay [1] has as its target POC1. Description: SAXS; each POC alone, 50 μM; oligomeric state from the total scattering.
Assay [2] has as its target POC1+POC2+POC3 assembly. Nature of the assay: SAXS; POC1+POC2+POC3 (1:1:1) at 50 μM; beamline B21, Diamond Light Source.
In assay [3] the target is POC2. Description: SAXS; each POC alone, 50 μM; oligomeric state from the total scattering.
In assay [4] the target is POC3. The description is as above.

Results on four substances are retold here after PMC4974474.

In general, stoichiometry N refers to the number of molecules, sites or subunits per partner or assembly. POC1 registered a stoichiometry N in assay [1] of 2.

In turn, POC1+POC2+POC3 assembly (complex) had a stoichiometry N in assay [2] of 2.

In turn, POC2 returned a stoichiometry N in assay [3] of 3.

For POC3, the stoichiometry N in assay [4] came out at 3.
